Here are results for two substances from PMC12579241.

What all share (assay): SPR
Test [1] concerns the target IgG1 Fc fragment (prepared by IdeS digest of bevacizumab) (human).
The target of test [2] is recombinant Fab fragment of trastuzumab (human) [IgG part: P01857].
In test [3] the target is trastuzumab (Herceptin) (human) (UniProt P01834).

As for “Azo-ProtG (wild-type C2 domain of streptococcal protein G with N-terminal Azo-tag and C-terminal Strep-tag II) (domain or fragment)”, the figures for the Kd in test [1] and in test [2] were 499 nM and 19700 nM, respectively.
Regarding “Azo-ProtG^N478R (C2 domain of streptococcal protein G with Asn478 replaced by Arg, N-terminal Azo-ta (domain or fragment)”, the Kd in test [1] is 682 nM; in test [2] it was over 256000 nM; in test [3] it was 459 nM.
